Reference: the supplement of paper PMC12042874
± gives the uncertainty stated by the source.

Assay: amyloid nucleation score (Sup35N fusion, yeast selection) (log enrichment); library NNK1; higher = more nucleation; inactive = no reads after selection
Summary of the method: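 The nucleation score is a DiMSum log enrichment of output over input reads, centred on the mode score of non-aggregating sequences. Sequences under 100 input reads were excluded, and reads came from Illumina sequencing of plasmid inserts. Psi-negative yeast expressing Sup35N fused to peptides of 20 random codons were induced with 100 μM copper sulfate for 24 hours and grown 7 days at 30°C on medium lacking adenine and uracil. Random libraries had three technical output replicates.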

| Substance | amyloid nucleation score |
| --- | --- |
| VCYAKTAVFSMCGFIWSR | 0.163 ± 0.77 |
| VGLERSWGEAKAVNMQRHGS | 0.346 ± 0.81 |
| DSVNRLLSCPINKMLWSNYS | 0.233 ± 0.22 |
| DSFMAENMWGLFFDKSESPA | -0.517 ± 0.95 |
| ATCNSVRARGFTPGHHLAPG | -0.405 ± 1.7 |
| SWNKGLREED | 0.562 ± 0.72 |
| YMKWTNDVNDTLDILFCVYL | 3.84 ± 0.069 |
| ALIFYRFLL | 0.863 ± 0.41 |
| SGCPDPW | -0.047 ± 1.7 |
| MSYCFF | 0.022 ± 0.55 |
| WTIWVKDSLVPVCTSF | -1.03 ± 1.2 |
| SAICRYVF | 0.768 ± 0.66 |
| VIHRIIDVLF | -0.06 ± 0.57 |
| LDYPISVIVPGTDQSLEFLP | inactive |
| GSCGYSTVVDVVCYLDLLLI | 0.131 ± 0.43 |
| DIFVLMRAMWHRGMI | 0.857 ± 0.8 |
| NGQRDIEYLSLFSPVGTMNS | -0.518 ± 0.43 |
| ELSDTVFRRVCNLIVMVTPV | 1.05 ± 0.4 |
| HRWSDVFPWRTVKMYQLSRC | 0.552 ± 0.76 |
| CHYMSHSSWHSWTNRVMRDM | 0.531 ± 0.29 |
| YHDVRLMVRVHVFWLF | 1.03 ± 0.37 |
| NRYPTLFWCVRNRVWECLRV | 0.392 ± 0.46 |
| YACESGMEIMHYRHMSGGVV | 0.732 ± 1 |
| MGLSLPSFW | -0.516 ± 1.7 |
| RFDYGGIESGVAGCVRVRDY | 0.473 ± 0.67 |
| WNTMWRHLGIYFKY | 0.249 ± 0.38 |

| Substance | amyloid nucleation score |
| --- | --- |
| HGRQE | 0.184 ± 1 |
| SLDYLIFPVLDDGKKYMFVM | 1.33 ± 0.46 |
| YFGLRSVKRWQT | -0.106 ± 0.52 |
| HQLAFYRFCIASSCSWAYLS | 0.825 ± 0.41 |
| TGPKRLTDNREFRKF | -1.01 ± 2.7 |
| LDTDFSPCRTAVLVAIMHRG | 0.415 ± 0.74 |
| SRVSFLNFWN | 4.27 ± 0.15 |
| LLSFAITCDSPVSRSVLFIR | -0.53 ± 0.58 |
| THFVLE | 0.53 ± 0.28 |
| TAWHLSMNALGNSSLDFKGR | 1.51 ± 0.16 |
| TSILAKNIIYCHYVGFPLGC | 5.97 ± 0.093 |
| PDAFKSLLLERRAWIKFVSK | 1.15 ± 0.7 |
| IDKMELFSRSKHKWYMASAI | -0.267 ± 0.79 |
| HANLGFS | -0.742 ± 0.78 |
| TIIVDDGWRAYSRLS | 0.22 ± 0.71 |
| NLVVQCADGVILSFWDHMVG | 2.43 ± 0.32 |
| CLDVFASISMRHFYFVFMCY | 0.487 ± 0.75 |
| THMGRTLSCFGMMSWSSDVA | 5.88 ± 0.065 |
| VMSKSNPIAV | 0.24 ± 0.54 |
| GYGAKWVLVVS | 1.25 ± 0.47 |
| ICSWVHDQWAFYYISLYYVK | -1.2 ± 0.74 |
| RASTNLRSEIDVNNRGWLRW | 1.32 ± 0.42 |
| VFYLCFTSQYYLSAGTVNAW | 4.99 ± 0.064 |
| YINTGVLYFGFCGL | 7.117 ± 0.06 |
| LRIARVYVYKIRAWSVVSGK | -1.35 ± 0.63 |
| LLVVIQICLM | 2.9 ± 0.14 |

| Substance | amyloid nucleation score |
| --- | --- |
| CWGLLSGDCHALEKFNRFYL | -0.086 ± 0.48 |
| NLWLPAWCGLYQCNTGHSGY | 7.996 ± 0.043 |
| FCAEEGVTRLNPKL | -0.023 ± 0.47 |
| EYIYNIAEWVD | -1.05 ± 0.79 |
| NRSWYIRVLHRATSVSLKSF | -0.226 ± 0.39 |
| VDVHVGCRTIRL | 0.034 ± 0.32 |
| ATNSEAARYLS | 0.996 ± 0.62 |
| CFDFYSYRVVSSAINYQFVM | -1.02 ± 0.39 |
| GPALTHTHS | 0.306 ± 0.63 |
| GRECLRCTFKMVGWVATEIA | -0.521 ± 0.71 |
| SSMILSNGVFNCQMGFLACK | 0.461 ± 0.43 |
| TLGAYQSCRGNVIMGQGTFV | 0.266 ± 0.46 |
| RFAAFIEQGFTTKK | 1.87 ± 0.14 |
| VMFYSLHFCGVEDFFTGAER | 0.834 ± 0.57 |
| AFLKLSTRWWKPVIFYKCDL | -0.932 ± 1.1 |
| TYYAAMRDGFVYHTKGLMAS | -0.209 ± 1 |
| CRLKLNPSVHGIGRGVCLAE | -0.464 ± 0.48 |
| LMFGRKCMLSLFPVRFHRCH | 0.378 ± 0.9 |
| SLRCQFTSLLSMVCGCSLYG | 0.807 ± 0.93 |
| HHLVLQRD | 0.347 ± 0.28 |
| IYAGHRQHGAV | -0.386 ± 0.55 |
| LICQLGEPQFNKFHWICSLD | -0.39 ± 1.7 |
| NVWIYPDSMKSNQTDLG | 1.26 ± 0.74 |
| SSSGFNIFRLLV | -0.325 ± 0.25 |
| VKKLQVA | 1.11 ± 0.74 |
| ALNYSRGMTMVGVCLPHKLT | -0.147 ± 0.3 |
